What all share (test): EMSA
Background: A gel shift assay detects complexes by their altered migration in electrophoresis.

The target of data set [1] is T1, Ecm16 (Streptomyces lasalocidi, UniProt Q0X0A9 1-792).
T1 sequence: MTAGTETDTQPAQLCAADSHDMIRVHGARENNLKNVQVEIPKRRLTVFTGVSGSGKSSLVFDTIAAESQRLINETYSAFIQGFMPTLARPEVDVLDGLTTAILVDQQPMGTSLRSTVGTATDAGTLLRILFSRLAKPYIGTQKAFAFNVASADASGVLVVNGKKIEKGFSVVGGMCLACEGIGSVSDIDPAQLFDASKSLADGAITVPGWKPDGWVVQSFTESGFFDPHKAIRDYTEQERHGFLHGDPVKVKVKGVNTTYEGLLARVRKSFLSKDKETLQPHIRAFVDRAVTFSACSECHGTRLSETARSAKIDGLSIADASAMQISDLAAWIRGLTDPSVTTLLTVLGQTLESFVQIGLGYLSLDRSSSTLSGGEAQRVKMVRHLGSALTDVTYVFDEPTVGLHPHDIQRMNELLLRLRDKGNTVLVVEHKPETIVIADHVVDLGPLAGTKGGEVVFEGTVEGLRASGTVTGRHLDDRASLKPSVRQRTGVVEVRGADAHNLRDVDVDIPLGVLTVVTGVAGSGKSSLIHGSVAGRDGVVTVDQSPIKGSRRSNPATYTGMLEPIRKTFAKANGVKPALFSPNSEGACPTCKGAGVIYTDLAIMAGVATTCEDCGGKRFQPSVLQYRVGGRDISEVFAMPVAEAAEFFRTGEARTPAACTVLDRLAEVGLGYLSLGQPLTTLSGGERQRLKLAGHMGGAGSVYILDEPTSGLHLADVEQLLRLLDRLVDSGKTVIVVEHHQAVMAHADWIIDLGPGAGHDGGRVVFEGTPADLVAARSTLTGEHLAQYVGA

The target of data set [2] is T1, Ecm16. This is another data set of the same source.
The target in data set [3] is T1, Ecm16. This is another data set of the same source.

Like-named read-outs stand apart in the source and are kept apart here.

B1: 32-mer dsDNA (dsDNA)
DNA 1: AGTGATCAGTGGTTACGTAACCACTGATCACT
DNA 2: AGTGATCAGTGGTTACGTAACCACTGATCACT
As usually defined, the Kd is the free concentration of one partner at which half of the binding sites on the other are occupied at equilibrium, for simple one-to-one binding. High values mean a looser complex, low ones a tighter complex. For B1, the Kd worked out at 34.8 nM with Ecm16 [1] and 20.6 nM with Ecm16 [2].

In the data set with Ecm16 [3], AGTGATCAGTGGTTACGTAACCACTGATCACT (ssDNA) [32-mer ssDNA] had a Kd of 39.6 nM.

The values are drawn from paper PMC9328131.
